Measurements reported in patent publication US20100098709A1 (AstraZeneca / MedImmune, published 2010).
Residue numbers refer to the chain shown, from its start. Each block holds one binder with its values, some of them ahead of it.

Tests used:
[1] = target: T1, FLAG HIS tagged soluble IL-6Ra (human, UniProt P08887 20-358, limits assumed); test: phage ELISA
T1 construct: the key was followed; also called HIS FLAG sIL-6R; FLAG-sIL-6R
T1 sequence: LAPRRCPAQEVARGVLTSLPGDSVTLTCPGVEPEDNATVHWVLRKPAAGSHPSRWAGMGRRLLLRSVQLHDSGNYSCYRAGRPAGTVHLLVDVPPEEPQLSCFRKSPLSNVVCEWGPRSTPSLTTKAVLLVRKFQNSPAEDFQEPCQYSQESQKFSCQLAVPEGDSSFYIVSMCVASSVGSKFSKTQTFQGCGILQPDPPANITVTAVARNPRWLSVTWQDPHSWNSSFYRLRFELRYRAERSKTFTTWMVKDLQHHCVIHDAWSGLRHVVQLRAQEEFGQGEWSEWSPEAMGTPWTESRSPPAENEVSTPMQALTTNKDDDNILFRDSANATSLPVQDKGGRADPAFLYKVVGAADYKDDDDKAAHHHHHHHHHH

[2] = target: T1, FLAG HIS tagged soluble IL-6Ra; test: phage ELISA, antigen on anti-FLAG plate
[3] = target: T2, biotinylated anti-FLAG monoclonal antibody (Sigma F9291); test: phage ELISA, anti-FLAG treated plate alone
T2 construct: Control coat of the phage ELISA plates (streptavidin plate treated with the anti-FLAG antibody, then MPBS only); also called anti FLAG antibody treated plates alone

[4] = target: T1, FLAG HIS tagged soluble IL-6Ra; test: ELISA and HTRF soluble binding assay, IgG
[5] = target: T1, FLAG HIS tagged soluble IL-6Ra; test: ELISA, IgG captured by anti-human Fc, 50 nM protein
Experimental: (§1) Immunoassay plates were washed 3 times using PBST, then blocked by addition of 300 μl/well MPBS for 1 h at room temperature. After a second washing step 2 μg/ml of the anti-complex antibody in PBS was added to the plate at 50 μl/well. The plates were incubated for 1 h at room temperature before being washed again as previously described. FLAG-tagged reagents (IL-6, sIL-6R, Hyper Complexes) were diluted to 50 nM in MPBS. Complexes were made using 50 nM of the FLAG-tagged component and a 2-fold molar excess of the untagged component. Four-fold serial dilutions were prepared of each of the reagents, which were then added to duplicate wells of the immunoassay plates at 50 μl/well. Control wells containing 50 nM irrelevant protein (in this case his FLAG tagged murine GMCSF-R), or MPBS only were also prepared. The immunoassay plates were then incubated for 1 h at room temperature. After a further washing step, biotinylated anti-FLAG monoclonal antibody (Sigma) diluted to 1 μg/ml in MPBS was added to all wells at 50 μl/well. The plates were incubated for 1 h at room temperature before the plates were again washed as before. Europium labelled streptavidin (Perkin Elmer 1244-360) was diluted to 100 ng/ml in Delfia assay buffer (Perkin Elmer 4002-0010), added to all wells at 50 μl/well and incubated for 1 h at room temperature. The immunoassay plates were then washed 7 times in Delfia wash buffer, consisting of 0.05 M Tris buffered saline (NaCl-0.138 M, KCl-0.0027 M) Tween 20 (0.05%), pH 8.0 (at 25° C.). A 50 μl volume of Delfia enhancement solution (Perkin Elmer 4001-0010) was then added to all wells. The plates were incubated for 10 mins before the Time-resolved fluorescence was measured at 620 nm using an EnVision plate reader.

[6] = target: T1, FLAG HIS tagged soluble IL-6Ra; test: HTRF soluble binding assay, 1 nM IgG, 20 nM HIS FLAG protein
Experimental: (§2) Purified IgG from positive clones identified from screening of crude periplasmic scFv and purified scFv, were tested in a HTRF® assay for binding to FLAG HIS tagged Hyper IL-6, FLAG HIS IL-6 and FLAG HIS sIL-6R.
(§3) Example data for binding of IgG of positive clones identified from screening of crude periplasmic scFv. Data shown in table 3 is expressed as % delta F at an IgG concentration of 1 nM (final assay concentration) and 20 nM of HIS FLAG protein (final assay concentration).

[7] = target: T3, HIS FLAG irrelevant ligand; test: as above
T3 construct: Unnamed control of the HTRF soluble assay; also called irrelevant FLAG HIS ligand
Experimental: as §2, §3

[8] = target: T4, HIS FLAG irrelevant receptor; test: as above
T4 construct: Unnamed control of the HTRF soluble assay; also called irrelevant FLAG HIS receptor
Experimental: as §2, §3

[9] = target: T5, HIS FLAG tagged human IL-6 (human, UniProt P05231 30-212); test: phage ELISA
T5 construct: also called HIS FLAG IL-6; FLAG-IL-6

[10] = target: T5, HIS FLAG tagged human IL-6; test: phage ELISA, antigen on anti-FLAG plate
[11] = target: T6, Complex 1: HIS FLAG IL-6/sIL-6R (human, UniProt P05231 30-212; P08887 20-358, limits assumed); test: phage ELISA, antigen on anti-FLAG plate
T6 construct: Non-covalent complex made by pre-incubating the two proteins; The untagged sIL-6R was bought; also called IL-6/sIL-6R complex consisting of FLAG tagged ligand and untagged receptor

[12] = target: T7, Complex 2: IL-6/HIS FLAG sIL-6R (human, UniProt P05231 30-212; P08887 20-358, limits assumed); test: phage ELISA, antigen on anti-FLAG plate
T7 construct: Non-covalent complex made by pre-incubating the two proteins; Untagged IL-6 was bought; also called IL-6/sIL-6R complex consisting of untagged ligand and FLAG tagged receptor

[13] = target: T8, FLAG HIS tagged Hyper IL-6; test: phage ELISA, antigen on anti-FLAG plate
T8 construct: also called HIS FLAG Hyper IL-6

[14] = target: T5, HIS FLAG tagged human IL-6; test: ELISA and HTRF soluble binding assay, IgG
[15] = target: T5, HIS FLAG tagged human IL-6; test: ELISA, IgG captured by anti-human Fc, 50 nM protein
Experimental: as §1

[16] = target: T6, Complex 1: HIS FLAG IL-6/sIL-6R; test: as above
Experimental: as §1

[17] = target: T7, Complex 2: IL-6/HIS FLAG sIL-6R; test: as above
Experimental: as §1

[18] = target: T8, FLAG HIS tagged Hyper IL-6; test: as above
Experimental: as §1

[19] = target: T5, HIS FLAG tagged human IL-6; test: HTRF soluble binding assay, 1 nM IgG, 20 nM HIS FLAG protein
Experimental: as §2, §3

[20] = target: T8, FLAG HIS tagged Hyper IL-6; test: as above
Experimental: as §2, §3

[21] = target: T8, FLAG HIS tagged Hyper IL-6; test: HTRF, inhibition of Hyper IL-6 binding to biotinylated gp130 Fc; IgG
Experimental: Purified IgG from positive clones identified from screening of crude periplasmic scFv and purified scFv were tested in a HTRF® assay for inhibition of binding of FLAG HIS tagged Hyper IL-6 binding to biotinylated recombinant human gp130 Fc. This assay was performed as for purified scFv (Example 3) with the following modifications. 6 nM biotinylated human recombinant gp130 Fc (10 μl/well) was used to give a final concentration of 1 nM of gp130Fc.
Purified scFv were diluted 1:3 by transferring 15 μl of purified scFv to 30 μl assay buffer and mixing by pipetting in 96 well plate (Greiner 650201). Dilutions were carried out sequentially in duplicate a further 9 times. 3 nM GP130 Fc (10 μl/well) to give a final concentration of 0.5 nM, 6 nM Hyper IL-6 (10 μl/well) to give a final concentration of 1 nM and combined HTRF reagents 2.598 nM anti-flag IgG labelled with cryptate and 30 nM anti-human Fc antibody labelled with XL665 (10 μl/well) were added to 30 μl of purified scFv titration in 96 well plate. 40 μl was then transferred to a black 384 well optiplate. All dilutions were performed in assay buffer.

binding result [1]: no binding | Absorbance (450 nM) [2]: 0.167 | Absorbance (450 nM) [3]: 0.053
B1: Antibody 4 scFv (scFv, V domains shown)
VH: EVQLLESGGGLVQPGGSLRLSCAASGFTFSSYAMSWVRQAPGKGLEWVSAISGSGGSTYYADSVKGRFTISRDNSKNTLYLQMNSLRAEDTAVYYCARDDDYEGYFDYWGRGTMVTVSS
VL: QAVLTQPSSVSGAPGQRVSISCTGSSSNIGAGYEVHWYQHLPGTAPKLLIYGNNNRPSGVPDRFSGSKSGTSASLAITGLQAEDEADYYCQSYDNNLPGSRVFGGGTKVTVLG
notes: also called Ab 4

binding result [4]: no binding | Europium Counts [5]: 2000 counts | % delta F [6]: 18% | % delta F [7]: 13% | % delta F [8]: 7%
B2: Antibody 4 IgG (antibody, V domains shown)
VH: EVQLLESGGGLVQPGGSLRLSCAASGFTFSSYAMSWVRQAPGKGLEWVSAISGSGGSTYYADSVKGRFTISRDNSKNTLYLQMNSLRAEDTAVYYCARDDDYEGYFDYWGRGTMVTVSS
VL: B1 VL
notes: also called Ab 4

binding result [1]: no binding | Absorbance (450 nM) [2]: 0.059 | Absorbance (450 nM) [3]: 0.052
B3: Antibody 1 scFv (scFv, V domains shown)
VH: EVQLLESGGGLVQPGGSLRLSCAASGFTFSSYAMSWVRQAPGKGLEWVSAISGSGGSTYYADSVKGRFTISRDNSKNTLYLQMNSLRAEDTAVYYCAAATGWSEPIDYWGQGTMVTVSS
VL: SYVLTQPPSVSVAPGQTATITCGGNNIGLKSVHWYQQKPGQAPLLVVHDDSARPSGIPERFSGSNSGNTATLTISRVEAGDEADYSCQVWDNSGGLWVFGGGTKVTVLG
notes: also called Ab 1

binding result [4]: no binding | Europium Counts [5]: 1340 counts | % delta F [6]: 4% | % delta F [7]: 8% | % delta F [8]: 11%
B4: Antibody 1 IgG (antibody, V domains shown)
VH: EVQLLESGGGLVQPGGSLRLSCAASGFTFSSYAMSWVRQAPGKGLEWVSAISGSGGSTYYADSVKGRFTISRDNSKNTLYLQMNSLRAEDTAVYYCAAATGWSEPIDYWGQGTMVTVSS
VL: B3 VL
notes: also called Ab 1

binding result [1]: no binding | Absorbance (450 nM) [2]: 0.083 | Absorbance (450 nM) [3]: 0.052
B5: Antibody 2 scFv (scFv, V domains shown)
VH: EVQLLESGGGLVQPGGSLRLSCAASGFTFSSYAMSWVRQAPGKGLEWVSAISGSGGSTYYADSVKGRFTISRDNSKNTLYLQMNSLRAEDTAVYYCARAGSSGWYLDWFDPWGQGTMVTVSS
VL: QAVLTQPSSVSGAPGQRVTISCAGSSSNIGAGYDVHWYQQVPGTAPKLLIYGDTNRPSGVPDRFSGSKFGTSASLTITGLQAEDEADYYCQSYDNSLSTSDWVFGGGTKVTVLG
notes: also called Ab 2

binding result [4]: no binding | Europium Counts [5]: 2450 counts | % delta F [6]: 10% | % delta F [7]: 11% | % delta F [8]: 5%
B6: Antibody 2 IgG (antibody, V domains shown)
VH: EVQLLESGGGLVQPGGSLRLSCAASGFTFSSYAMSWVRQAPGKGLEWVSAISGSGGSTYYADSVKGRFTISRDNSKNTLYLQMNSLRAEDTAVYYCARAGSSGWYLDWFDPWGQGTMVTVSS
VL: B5 VL
notes: also called Ab 2

binding result [1]: no binding | Absorbance (450 nM) [2]: 0.056 | Absorbance (450 nM) [3]: 0.049
B7: Antibody 3 scFv (scFv, V domains shown)
VH: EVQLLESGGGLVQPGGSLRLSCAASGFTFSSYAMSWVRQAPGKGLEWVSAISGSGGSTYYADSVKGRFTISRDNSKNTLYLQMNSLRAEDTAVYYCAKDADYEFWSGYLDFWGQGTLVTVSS
VL: QSVLTQPPSVSGAPGQRVNISCTGSSSNIGAGYDVHWYQQLPGTAPKLLIYGNNNRPSGVPDRFSGSKSGTSASLAITGLQAEDEADYYCQSYDSSLSGYVFGTGTKVTVLG
notes: also called Ab 3

binding result [9]: no binding | binding result [1]: no binding | Absorbance (450 nM) [10]: 0.065 | Absorbance (450 nM) [2]: 0.061 | Absorbance (450 nM) [12]: 0.747 | Absorbance (450 nM) [13]: 0.833 | Absorbance (450 nM) [3]: 0.062
B8: Antibody 5 scFv (scFv, V domains shown)
VH: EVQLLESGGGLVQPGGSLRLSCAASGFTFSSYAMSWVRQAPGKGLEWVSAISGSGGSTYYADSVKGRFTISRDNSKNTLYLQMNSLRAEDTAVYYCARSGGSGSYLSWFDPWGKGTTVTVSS
VL: B7 VL with N19T, N54S, Y100W, T104G
notes: also called Ab 5
Absorbance (450 nM) [11]: 0.331

binding result [4]: no binding | Europium Counts [5]: 1420 counts | % delta F [6]: 6% | % delta F [7]: 10% | % delta F [8]: 11%
B9: Antibody 3 IgG (antibody, V domains shown)
VH: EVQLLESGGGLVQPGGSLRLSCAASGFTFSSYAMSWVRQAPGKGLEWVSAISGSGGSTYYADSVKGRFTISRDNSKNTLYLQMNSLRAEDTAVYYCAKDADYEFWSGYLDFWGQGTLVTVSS
VL: B7 VL
notes: also called Ab 3

binding result [14]: no binding | binding result [4]: no binding | Europium Counts [15]: 1730 counts | Europium Counts [5]: 1500 counts | Europium Counts [17]: 417000 counts | Europium Counts [18]: 383000 counts | % delta F [19]: 4% | % delta F [6]: 9% | % delta F [20]: 331% | % delta F [7]: 1% | % delta F [8]: 3% | IC50 [21]: 0.7 nM
B10: Antibody 5 IgG (antibody, V domains shown)
VH: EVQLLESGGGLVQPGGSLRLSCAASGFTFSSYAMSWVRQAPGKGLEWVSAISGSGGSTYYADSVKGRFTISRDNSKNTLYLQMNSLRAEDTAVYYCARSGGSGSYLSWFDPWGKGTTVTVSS
VL: B7 VL with N19T, N54S, Y100W, T104G
notes: also called Ab 5
Europium Counts [16]: 120000 counts
